Test results reported in publication PMC9832388.
Where two headings read alike, the source gives them in different places. Each block holds one substance with its values, some of them ahead of it.

Key:
[1] = biological target: C3b (UniProt P01024); assay: SPR; BIAcore S200; C3b (800-1000 RU) on a CM5 chip; FH1-4 variants flowed at 20 to 0.3125 µM, 90 s at 30 µL/min; steady state fit, estimated KD; done once in HBST and once in PBST (PBST shown)
[2] = biological target: C3b (UniProt P01024); assay: as above; remark: listed apart in the source
[3] = biological target: C3b (UniProt P01024)
[4] = biological target: C3b:FH complex (C3b with WT FH CCP 1-4) (UniProt P01024); assay: SPR; TMC building, FI variants: FI variants on the inactive (S525A) backbone (125-15.625 nM; 62.5 nM shown) co-injected with FH1-4 at constant concentration (125 nM in the methods, 118 nM in the legend) onto thioester-coupled C3b (1000 RU); PBST + Mg2+
[5] = biological target: C3b:FH complex (C3b with WT FH CCP 1-4) (UniProt P01024)
[6] = biological target: C3b:FH complex (C3b with WT FH CCP 1-4) (UniProt P01024); remark: listed apart in the source
[7] = biological target: C3b with FH CCP 1-4 P26S (UniProt P01024); assay: SPR; TMC building, FH variants: FH1-4 (118-14.75 nM) co-injected with 118 nM inactive (S525A) FI onto C3b (1000 RU, thiol/thioester coupled) CM5 chip; PBST + 1 mM MgCl2, 25°C, 2 min at 30 µl/min
[8] = biological target: C3b with FH CCP 1-4 R166W (UniProt P01024); assay: as above
[9] = biological target: C3b with FH CCP 1-4 R232Q (UniProt P01024); assay: as above
[10] = biological target: C3b with FH CCP 1-4 R83S (UniProt P01024); assay: as above
[11] = biological target: C3b with FH CCP 1-4 T91S (UniProt P01024); assay: as above
[12] = biological target: C3b:FH complex (C3b with WT FH CCP 1-4) (UniProt P01024); assay: as above

Chain of C3b:FH complex (C3b with WT FH CCP 1-4) (P01024 23-667, chain 1 of 3): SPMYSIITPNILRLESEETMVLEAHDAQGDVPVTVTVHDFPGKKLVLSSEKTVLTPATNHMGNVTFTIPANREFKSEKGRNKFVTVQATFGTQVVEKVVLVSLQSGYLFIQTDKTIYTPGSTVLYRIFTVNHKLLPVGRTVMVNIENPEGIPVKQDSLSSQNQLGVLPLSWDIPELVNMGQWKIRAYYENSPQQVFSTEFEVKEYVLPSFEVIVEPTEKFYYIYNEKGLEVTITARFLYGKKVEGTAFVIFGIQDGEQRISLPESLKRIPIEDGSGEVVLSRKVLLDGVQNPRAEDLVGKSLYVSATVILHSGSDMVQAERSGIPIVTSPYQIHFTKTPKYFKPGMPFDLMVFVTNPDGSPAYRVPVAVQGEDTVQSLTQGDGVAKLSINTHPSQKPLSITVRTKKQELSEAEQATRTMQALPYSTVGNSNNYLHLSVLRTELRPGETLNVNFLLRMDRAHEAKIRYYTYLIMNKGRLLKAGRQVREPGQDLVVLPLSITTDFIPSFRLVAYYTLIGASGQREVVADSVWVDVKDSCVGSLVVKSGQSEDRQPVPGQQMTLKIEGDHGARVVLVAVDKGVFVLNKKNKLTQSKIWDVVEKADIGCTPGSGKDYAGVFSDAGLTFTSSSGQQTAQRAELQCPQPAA
Chain of C3b:FH complex (C3b with WT FH CCP 1-4) (P01024 749-1663, chain 2 of 3): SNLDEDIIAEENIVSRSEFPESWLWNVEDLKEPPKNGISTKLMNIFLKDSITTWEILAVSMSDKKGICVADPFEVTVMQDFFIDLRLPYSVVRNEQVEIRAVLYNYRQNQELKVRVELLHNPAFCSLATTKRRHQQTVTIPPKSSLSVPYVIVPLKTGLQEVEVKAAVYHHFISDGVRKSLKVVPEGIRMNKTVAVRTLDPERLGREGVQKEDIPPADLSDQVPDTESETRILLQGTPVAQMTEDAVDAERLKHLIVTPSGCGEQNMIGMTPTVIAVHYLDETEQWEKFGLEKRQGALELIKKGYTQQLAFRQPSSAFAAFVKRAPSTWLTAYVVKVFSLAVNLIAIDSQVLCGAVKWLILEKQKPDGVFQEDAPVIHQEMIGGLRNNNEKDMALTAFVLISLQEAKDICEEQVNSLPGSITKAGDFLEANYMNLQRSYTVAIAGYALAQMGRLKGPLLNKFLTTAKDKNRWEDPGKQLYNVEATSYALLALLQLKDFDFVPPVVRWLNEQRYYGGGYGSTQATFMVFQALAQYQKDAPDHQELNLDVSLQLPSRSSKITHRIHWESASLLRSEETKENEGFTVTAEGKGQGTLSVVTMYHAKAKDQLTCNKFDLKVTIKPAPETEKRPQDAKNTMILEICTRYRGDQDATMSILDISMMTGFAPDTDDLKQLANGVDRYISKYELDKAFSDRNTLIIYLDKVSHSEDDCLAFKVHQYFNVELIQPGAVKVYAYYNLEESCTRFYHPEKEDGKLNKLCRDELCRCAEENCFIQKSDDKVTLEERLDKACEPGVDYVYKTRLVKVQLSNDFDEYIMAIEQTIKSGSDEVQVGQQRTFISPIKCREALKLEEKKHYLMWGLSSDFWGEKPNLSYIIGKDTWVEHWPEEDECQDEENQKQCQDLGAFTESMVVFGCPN
Chain of C3b:FH complex (C3b with WT FH CCP 1-4) (P08603 19-1231, chain 3 of 3, further chain): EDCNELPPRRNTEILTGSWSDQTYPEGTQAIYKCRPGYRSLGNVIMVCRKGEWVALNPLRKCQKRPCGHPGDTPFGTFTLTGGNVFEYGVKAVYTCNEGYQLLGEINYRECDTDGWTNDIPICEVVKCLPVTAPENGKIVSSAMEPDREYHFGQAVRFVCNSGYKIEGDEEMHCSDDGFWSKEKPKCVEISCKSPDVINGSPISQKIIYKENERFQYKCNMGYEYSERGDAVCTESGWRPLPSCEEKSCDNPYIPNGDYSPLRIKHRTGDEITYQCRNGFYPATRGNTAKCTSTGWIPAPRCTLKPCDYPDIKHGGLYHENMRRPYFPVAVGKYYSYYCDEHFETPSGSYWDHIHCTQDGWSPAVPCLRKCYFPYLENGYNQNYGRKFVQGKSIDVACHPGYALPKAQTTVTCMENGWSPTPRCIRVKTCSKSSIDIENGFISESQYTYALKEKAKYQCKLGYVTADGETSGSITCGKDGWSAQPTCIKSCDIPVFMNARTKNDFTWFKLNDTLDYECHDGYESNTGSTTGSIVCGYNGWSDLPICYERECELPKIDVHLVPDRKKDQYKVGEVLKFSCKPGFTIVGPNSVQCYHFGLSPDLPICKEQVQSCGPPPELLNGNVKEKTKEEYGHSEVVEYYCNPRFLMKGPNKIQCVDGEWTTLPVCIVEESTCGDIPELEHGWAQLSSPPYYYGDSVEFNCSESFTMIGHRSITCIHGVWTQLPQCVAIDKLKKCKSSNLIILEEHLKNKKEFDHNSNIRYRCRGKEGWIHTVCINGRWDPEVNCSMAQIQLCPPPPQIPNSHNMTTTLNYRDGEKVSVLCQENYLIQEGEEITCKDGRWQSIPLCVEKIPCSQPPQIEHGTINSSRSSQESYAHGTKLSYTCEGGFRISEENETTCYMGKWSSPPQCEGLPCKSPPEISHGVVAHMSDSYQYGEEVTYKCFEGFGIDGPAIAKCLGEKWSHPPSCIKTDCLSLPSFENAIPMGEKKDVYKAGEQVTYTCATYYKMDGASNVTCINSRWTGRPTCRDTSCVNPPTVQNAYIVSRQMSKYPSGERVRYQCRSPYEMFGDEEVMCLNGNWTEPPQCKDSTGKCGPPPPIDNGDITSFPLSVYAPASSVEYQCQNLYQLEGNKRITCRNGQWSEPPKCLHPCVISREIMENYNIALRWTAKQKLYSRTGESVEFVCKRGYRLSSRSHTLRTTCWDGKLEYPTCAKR
Chain of C3b (P01024 23-667, chain 1 of 2): as the sequence (P01024 23-667, chain 1 of 3) above
Chain of C3b (P01024 749-1663, chain 2 of 2): as the sequence (P01024 749-1663, chain 2 of 3) above
Chain of C3b with FH CCP 1-4 R83S (P01024 23-667, chain 1 of 3): as the sequence (P01024 23-667, chain 1 of 3) above
Chain of C3b with FH CCP 1-4 R83S (P01024 749-1663, chain 2 of 3): as the sequence (P01024 749-1663, chain 2 of 3) above
Chain of C3b with FH CCP 1-4 R83S (P08603 19-1231 R83S, chain 3 of 3, further chain): as the sequence (P08603 19-1231, chain 3 of 3, further chain) above, with R65S counted along it
Chain of C3b with FH CCP 1-4 P26S (P01024 23-667, chain 1 of 3): as the sequence (P01024 23-667, chain 1 of 3) above
Chain of C3b with FH CCP 1-4 P26S (P01024 749-1663, chain 2 of 3): as the sequence (P01024 749-1663, chain 2 of 3) above
Chain of C3b with FH CCP 1-4 P26S (P08603 19-1231 P26S, chain 3 of 3, further chain): as the sequence (P08603 19-1231, chain 3 of 3, further chain) above, with P8S counted along it
Chain of C3b with FH CCP 1-4 T91S (P01024 23-667, chain 1 of 3): as the sequence (P01024 23-667, chain 1 of 3) above
Chain of C3b with FH CCP 1-4 T91S (P01024 749-1663, chain 2 of 3): as the sequence (P01024 749-1663, chain 2 of 3) above
Chain of C3b with FH CCP 1-4 T91S (P08603 19-1231 T91S, chain 3 of 3, further chain): as the sequence (P08603 19-1231, chain 3 of 3, further chain) above, with T73S counted along it
Chain of C3b with FH CCP 1-4 R166W (P01024 23-667, chain 1 of 3): as the sequence (P01024 23-667, chain 1 of 3) above
Chain of C3b with FH CCP 1-4 R166W (P01024 749-1663, chain 2 of 3): as the sequence (P01024 749-1663, chain 2 of 3) above
Chain of C3b with FH CCP 1-4 R166W (P08603 19-1231 R166W, chain 3 of 3, further chain): as the sequence (P08603 19-1231, chain 3 of 3, further chain) above, with R148W counted along it
Chain of C3b with FH CCP 1-4 R232Q (P01024 23-667, chain 1 of 3): as the sequence (P01024 23-667, chain 1 of 3) above
Chain of C3b with FH CCP 1-4 R232Q (P01024 749-1663, chain 2 of 3): as the sequence (P01024 749-1663, chain 2 of 3) above
Chain of C3b with FH CCP 1-4 R232Q (P08603 19-1231 R232Q, chain 3 of 3, further chain): as the sequence (P08603 19-1231, chain 3 of 3, further chain) above, with R214Q counted along it

Substance: FH CCP 1-4 P26S (from UniProt P08603 19-1231) (domain or fragment)
Kd [1]: 11.5 µM

Substance: FI K441R/S525A (from UniProt P05156 19-335; P05156 340-583) (enzyme)
RU of the TMC (62.5 nM FI variant with FH1-4) [4]: 91.2 RU
percent of the response of inactive WT FI [4]: 94%

Substance: FI P553S/S525A (from UniProt P05156 19-335; P05156 340-583) (enzyme)
RU of the TMC (62.5 nM FI variant with FH1-4) [4]: 62.9 RU
percent of the response of inactive WT FI [4]: 65%

Substance: FI R406H/S525A (from UniProt P05156 19-335; P05156 340-583) (enzyme)
RU of the TMC (62.5 nM FI variant with FH1-4) [4]: 74.6 RU
percent of the response of inactive WT FI [4]: 77%

Substance: inactive FI (S525A FI) (from UniProt P05156 19-335; P05156 340-583) (enzyme)
inhibition of C3b cleavage by WT FI in a fluid phase CA assay with increasing S525A FI (15% at equimolar, 20% at 2-fold molar) [6]: 20%
peak RU of the TMC (59 nM FH1-4 with 118 nM S525A FI) [7]: 29 RU
peak RU of the TMC (59 nM FH1-4 with 118 nM S525A FI) [8]: 7 RU
peak RU of the TMC (59 nM FH1-4 with 118 nM S525A FI) [9]: 6 RU
peak RU of the TMC (59 nM FH1-4 with 118 nM S525A FI) [10]: 5 RU
peak RU of the TMC (59 nM FH1-4 with 118 nM S525A FI) [11]: 30 RU
RU of the TMC (118 nM FH1-4 with 118 nM inactive FI) [12]: 60 RU
peak RU of the TMC (59 nM FH1-4 with 118 nM S525A FI) [12]: 40 RU

Now from value to substance:

Kd [1]: 16.7 µM
Kd [2]: 16 to 20 µM
Substance: FH CCP 1-4 R166W (from UniProt P08603 19-1231) (domain or fragment)

fluid phase cofactor activity with FI and C3b: reduction in C3b α’ chain degradation (% reduced compared to WT) [3]: 41
Substance: FH CCP 1-4 R232Q (from UniProt P08603 19-1231) (domain or fragment)

Kd [1]: 9.4 µM
Substance: FH CCP 1-4 T91S (from UniProt P08603 19-1231) (domain or fragment)

Kd [1]: 10 µM
Substance: FH CCP 1-4 WT (from UniProt P08603 19-1231) (domain or fragment)

inhibition of the activity of WT FI in a fluid phase CA assay with increasing H380R FI (~20% at equimolar, 35% at 2-fold molar) [5]: 35%
Substance: H380R FI (from UniProt P05156 19-335; P05156 340-583) (enzyme)
